From patent publication US20190071490A1, “Preventing Post-Ictal Headaches” (Beth Israel Deaconess Medical Center, Inc., priority 2017, published 2019) come the findings set out here.

The target in one test is T1, human α-CGRP (Homo sapiens, UniProt P06881).
T1 construct: 1-37 (WT); purchased GenScript Corporation or Global Peptide Services
T1 sequence (P06881 83-119 limits assumed): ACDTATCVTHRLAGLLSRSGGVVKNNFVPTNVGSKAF
As to the kind of experiment: Biacore SPR affinity of Fab fragments to N-biotinylated human α-CGRP on SA chip. The format is binding. To be noted: 37° C., screening mode except underlined values. The protocol: (§1) Affinity determination of the Fabs. Affinities of the anti-CGRP monoclonal antibodies were determined at either 25° C. or 37° C. using the BIACORE3000™ surface plasmon resonance (SPR) system (Biacore, INC, Piscataway N.J.) with the manufacture's own running buffer, HBS-EP (10 mM HEPES pH 7.4, 150 mM NaCl, 3 mM EDTA, 0.005% v/v polysorbate P20). Affinity was determined by capturing N-terminally biotinylated CGRP peptides (custom ordered from GenScript Corporation, New Jersey or Global Peptide Services, Colorado) via pre-immobilized streptavidin on SA chip and measuring binding kinetics of antibody Fab titrated across the CGRP surface. Biotinylated CGRP was diluted into HBS-EP and injected over the chip at a concentration of less than 0.001 mg/ml. Using variable flow time across the individual chip channels, two ranges of antigen density were achieved: <50 response units (RU) for detailed kinetic studies and about 800 RU for concentration studies and screening. […] After each binding cycle, surfaces were regenerated with 25 mM NaOH in 25% v/v ethanol, which was tolerated over hundreds of cycles. Kinetic association rate (kon) and dissociation rate (koff) were obtained simultaneously by fitting the data to a 1:1 Langmuir binding model (Karlsson et al. (1994). Methods Enzymology 6. 99-110) using the BIAevaluation program. Global equilibrium dissociation constants (KD) or “affinities” were calculated from the ratio KD=koff/kon.
(§2) Biacore assay for affinity determination. […] All Biacore assays were conducted in HBS-EP running buffer (10 mM HEPES pH 7.4, 150 mM NaCl, 3 mM EDTA, 0.005% v/v polysorbate P20). CGRP surfaces were prepared by diluting the N-biotinylated CGRP to a concentration of less than 0.001 mg/mL into HBS-EP buffer and injecting it across the SA sensor chip using variable contact times. Low capacity surfaces, corresponding to capture levels <50 response units (RU) were used for high-resolution kinetic studies, whereas high capacity surfaces (about 800 RU of captured CGRP) were used for concentration studies, screening, and solution affinity determinations. […] Samples were typically injected for 1 minute at 100 μL/min and dissociation times of at least 10 minutes were allowed. After each binding cycle, surfaces were regenerated with 25 mM NaOH in 25% v/v ethanol, which was tolerated over hundreds of cycles. An entire titration series (typically generated in duplicate) was fit globally to a 1:1 Langmuir binding model using the BIAevaluation program. This returned a unique pair of association and dissociation kinetic rate constants (respectively, kon and koff) for each binding interaction, whose ratio gave the equilibrium dissociation constant (KD=koff/kon).
(§3) High-resolution analysis of binding interactions with extremely slow off rates. […] The protocol described above was used with the following modifications. The association rate constant (kon) was determined by injecting a 2-fold titration series (in duplicate) spanning 550 nM-1 nM for 30 seconds at 100 μL/min and allowing only a 30 second dissociation phase. The dissociation rate constant (koff) was determined by injecting three concentrations (high, medium, and low) of the same titration series in duplicate for 30 seconds and allowing a 2-hour dissociation phase. The affinity (KD) of each interaction was obtained by combining the kon and koff values obtained in both types of experiments, as shown in Table 4.
(Surface plasmon resonance follows binding to a sensor surface in real time, without labels.)

A further test addresses T2, rat α-CGRP (Rattus norvegicus, UniProt P01256).
T2 construct: rat α (1-37); purchased GenScript Corporation or Global Peptide Services
T2 sequence (P01256 83-119 limits assumed): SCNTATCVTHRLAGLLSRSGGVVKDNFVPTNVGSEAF
As to the kind of experiment: Biacore SPR affinity of Fab fragments to N-biotinylated rat α-CGRP on SA chip. To be noted: 37° C., screening mode except underlined values. The format is binding. The protocol:
as §1, §2, §3

B1: M75: G1 variant; L1 R28N T30G; L2 L56S; H2 E54K A57V; HC-FW3 L99T A100V (antibody, V domains shown)
VH: EVQLVESGGGLVQPGGSLRLSCAASGFTFSNYWISWVRQAPGKGLEWVAEIRSKSDVSATHYAEAVKGRFTISRDNAKNSLYLQMNSLRAEDTAVYYCTVYFDYGLAIQNYWGQGTLVTVSS
VL: EIVLTQSPATLSLSPGERATLSCKASKNVGTYVSWYQQKPGQAPRLLIYGASNRYSGIPARFSGSGSGTDFTLTISSLEPEDFAVYYCSQSYNYPYTFGQGTKLEIK
Turning to B1, in the test with human α-CGRP, the “α-human koff” value amounted to 0.00116 s⁻¹. Also, the “α-rat koff” value with rat α-CGRP was 0.0187 s⁻¹.

B2: M82: G1 variant; L1 R28N T30V; L2 A51H L56T; H2 A57N; HC-FW3 L99T A100V (antibody, V domains shown)
VH: EVQLVESGGGLVQPGGSLRLSCAASGFTFSNYWISWVRQAPGKGLEWVAEIRSESDNSATHYAEAVKGRFTISRDNAKNSLYLQMNSLRAEDTAVYYCTVYFDYGLAIQNYWGQGTLVTVSS
VL: EIVLTQSPATLSLSPGERATLSCKASKNVVTYVSWYQQKPGQAPRLLIYGHSNRYTGIPARFSGSGSGTDFTLTISSLEPEDFAVYYCSQSYNYPYTFGQGTKLEIK
For B2, the “α-human koff” value with human α-CGRP is 0.000877 s⁻¹. The “α-rat koff” value with rat α-CGRP came to 0.00699 s⁻¹.

B3: M76: G1 variant; L1 R28N T30S; L2 G50A L56T; H2 A57G; HC-FW3 L99T A100V (antibody, V domains shown)
VH: EVQLVESGGGLVQPGGSLRLSCAASGFTFSNYWISWVRQAPGKGLEWVAEIRSESDGSATHYAEAVKGRFTISRDNAKNSLYLQMNSLRAEDTAVYYCTVYFDYGLAIQNYWGQGTLVTVSS
VL: EIVLTQSPATLSLSPGERATLSCKASKNVSTYVSWYQQKPGQAPRLLIYAASNRYTGIPARFSGSGSGTDFTLTISSLEPEDFAVYYCSQSYNYPYTFGQGTKLEIK
B3: the “α-human koff” value with human α-CGRP came to 0.000364 s⁻¹. In addition, the “α-rat koff” value with rat α-CGRP was 0.00116 s⁻¹.

B4: M79: G1 variant; L1 R28N T30S; L2 G50A L56T; H2 E54K A57P; HC-FW3 L99T A100V (antibody, V domains shown)
VH: EVQLVESGGGLVQPGGSLRLSCAASGFTFSNYWISWVRQAPGKGLEWVAEIRSKSDPSATHYAEAVKGRFTISRDNAKNSLYLQMNSLRAEDTAVYYCTVYFDYGLAIQNYWGQGTLVTVSS
VL: EIVLTQSPATLSLSPGERATLSCKASKNVSTYVSWYQQKPGQAPRLLIYAASNRYTGIPARFSGSGSGTDFTLTISSLEPEDFAVYYCSQSYNYPYTFGQGTKLEIK
Regarding B4, the “α-human koff” value with human α-CGRP was determined as 0.00129 s⁻¹. Further, in the test with rat α-CGRP, the “α-rat koff” value was 0.19 s⁻¹.

B5: M80: G1 variant; L1 R28N T30S; L2 L561; H2 E54K A57N; S58V (printed in L1 column); HC-FW3 L99T A100V (antibody, V domains shown)
VH: EVQLVESGGGLVQPGGSLRLSCAASGFTFSNYWISWVRQAPGKGLEWVAEIRSKSDNVATHYAEAVKGRFTISRDNAKNSLYLQMNSLRAEDTAVYYCTVYFDYGLAIQNYWGQGTLVTVSS
VL: EIVLTQSPATLSLSPGERATLSCKASKNVSTYVSWYQQKPGQAPRLLIYGASNRYIGIPARFSGSGSGTDFTLTISSLEPEDFAVYYCSQSYNYPYTFGQGTKLEIK
Regarding B5, the “α-human koff” value with human α-CGRP came to 0.00209 s⁻¹. In addition, the “α-rat koff” value with rat α-CGRP was 0.0993 s⁻¹.

B6: M77: G1 variant; L1 R28N T30S; L2 G50A L56T; H2 E54K A57D; HC-FW3 L99T A100V (antibody, V domains shown)
VH: EVQLVESGGGLVQPGGSLRLSCAASGFTFSNYWISWVRQAPGKGLEWVAEIRSKSDDSATHYAEAVKGRFTISRDNAKNSLYLQMNSLRAEDTAVYYCTVYFDYGLAIQNYWGQGTLVTVSS
VL: EIVLTQSPATLSLSPGERATLSCKASKNVSTYVSWYQQKPGQAPRLLIYAASNRYTGIPARFSGSGSGTDFTLTISSLEPEDFAVYYCSQSYNYPYTFGQGTKLEIK
For the molecule B6, the “α-human koff” value in the test with human α-CGRP turned out to be 0.000477 s⁻¹. For the same molecule, in the test with rat α-CGRP, the “α-rat koff” value stood at 0.0143 s⁻¹.

B7: M20: G1 variant; L1 R28W; HC-FW3 L99R A100L (antibody, V domains shown)
VH: EVQLVESGGGLVQPGGSLRLSCAASGFTFSNYWISWVRQAPGKGLEWVAEIRSESDASATHYAEAVKGRFTISRDNAKNSLYLQMNSLRAEDTAVYYCRLYFDYGLAIQNYWGQGTLVTVSS
VL: EIVLTQSPATLSLSPGERATLSCKASKWVTTYVSWYQQKPGQAPRLLIYGASNRYLGIPARFSGSGSGTDFTLTISSLEPEDFAVYYCSQSYNYPYTFGQGTKLEIK
On to B7, for which, in the test with human α-CGRP, the “α-human koff” value is 0.000136 s⁻¹. Moreover, in the test with rat α-CGRP, the “α-rat koff” value is 0.00144 s⁻¹.

B8: M83: G1 variant; L1 R28N T30V; L2 A51H L56T; H2 E54K A57N S58M; H61F (printed in L1 column); HC-FW3 L99T A100V (antibody, V domains shown)
VH: EVQLVESGGGLVQPGGSLRLSCAASGFTFSNYWISWVRQAPGKGLEWVAEIRSKSDNMATFYAEAVKGRFTISRDNAKNSLYLQMNSLRAEDTAVYYCTVYFDYGLAIQNYWGQGTLVTVSS
VL: EIVLTQSPATLSLSPGERATLSCKASKNVVTYVSWYQQKPGQAPRLLIYGHSNRYTGIPARFSGSGSGTDFTLTISSLEPEDFAVYYCSQSYNYPYTFGQGTKLEIK
On to B8, for which the “α-human koff” value with human α-CGRP amounted to 0.000933 s⁻¹. For the same molecule, in the test with rat α-CGRP, the “α-rat koff (1/s)” value is recorded as “No binding”.

B9: M81: G1 variant; L1 R28N T30S; L2 L56S; H2 E54K A57N S58E; HC-FW3 L99T A100V (antibody, V domains shown)
VH: EVQLVESGGGLVQPGGSLRLSCAASGFTFSNYWISWVRQAPGKGLEWVAEIRSKSDNEATHYAEAVKGRFTISRDNAKNSLYLQMNSLRAEDTAVYYCTVYFDYGLAIQNYWGQGTLVTVSS
VL: EIVLTQSPATLSLSPGERATLSCKASKNVSTYVSWYQQKPGQAPRLLIYGASNRYSGIPARFSGSGSGTDFTLTISSLEPEDFAVYYCSQSYNYPYTFGQGTKLEIK
Take B9: the “α-human koff” value with human α-CGRP turned out to be 0.00049 s⁻¹. For the same molecule, in the test with rat α-CGRP, the “α-rat koff” value came to 0.00429 s⁻¹.

B10: M78: G1 variant; L1 R28N T30S; L2 G50A L56T; H2 E54K A57N S58T; HC-FW3 L99T A100V (antibody, V domains shown)
VH: EVQLVESGGGLVQPGGSLRLSCAASGFTFSNYWISWVRQAPGKGLEWVAEIRSKSDNTATHYAEAVKGRFTISRDNAKNSLYLQMNSLRAEDTAVYYCTVYFDYGLAIQNYWGQGTLVTVSS
VL: EIVLTQSPATLSLSPGERATLSCKASKNVSTYVSWYQQKPGQAPRLLIYAASNRYTGIPARFSGSGSGTDFTLTISSLEPEDFAVYYCSQSYNYPYTFGQGTKLEIK
As to B10, the “α-human koff” value with human α-CGRP turned out to be 0.00131 s⁻¹. The “α-rat koff” value with rat α-CGRP was found to be 0.167 s⁻¹.

B11: M84: G1 variant; L1 R28N T30V; L2 A51H L56T; H2 E54N A57N; HC-FW3 L99T A100V (antibody, V domains shown)
VH: EVQLVESGGGLVQPGGSLRLSCAASGFTFSNYWISWVRQAPGKGLEWVAEIRSNSDNSATHYAEAVKGRFTISRDNAKNSLYLQMNSLRAEDTAVYYCTVYFDYGLAIQNYWGQGTLVTVSS
VL: EIVLTQSPATLSLSPGERATLSCKASKNVVTYVSWYQQKPGQAPRLLIYGHSNRYTGIPARFSGSGSGTDFTLTISSLEPEDFAVYYCSQSYNYPYTFGQGTKLEIK
B11: the “α-human koff” value with human α-CGRP amounted to 0.00108 s⁻¹. For the same molecule, the “α-rat koff” value with rat α-CGRP was determined as 0.0176 s⁻¹.
